Here are results for two molecules from patent US20240084027A1 (BEIJING MABWORKS, published 2024).

Like-named read-outs stand apart in the source and are kept apart here.

Assay [1] deals with T1, human PD-L1 on HEK293A/human PD-L1 cells (human, UniProt Q9NZQ7 19-290). The assay can be described thus: FACS on HEK293A/human PD-L1 cells. As for the experimental part:
(§1) The bispecific antibodies as prepared above were tested for their binding capability to cell surface human, monkey and mouse CD40 proteins by FACS, using the HEK293A cells prepared in Example 1 that stably expressed human, monkey or mouse CD40. Briefly, a 96-well plate was seeded with 10⁵ HEK293A cells in 50 μl PBS, and then added with 100 μl serially diluted anti-CD40 antibody 714VH2VL2 and the bispecific antibodies of the disclosure (starting concentration at 40 μg/ml). After incubation at 4° C. for 1 h, the plate was washed by PBST for 3 times. The plate was added with 1:500 diluted APC-goat anti-mouse IgG (Cat #:405308, BioLegen, USA), incubated at 4° for 1 h, washed with PBS for 3 times, and subjected to fluorescence measurement in a FACS machine (BD).
(§2) Following the protocol of Example 4, the bispecific antibodies were tested for their binding capability to cell surface human, or monkey PD-L1 proteins by FACS, using the HEK293A cells prepared in Example 1 that stably expressed human or monkey […].

Assay [2] deals with T1, human PD-L1 on HEK293A/human PD-L1 cells. The assay can be described thus: FACS on HEK293A/human PD-L1 cells. As for the experimental part: as §1
(§3) Following the protocols in Example 4 and Example 5, the bi- or multi-specific antibodies of the disclosure were tested for their binding capability to human PD-L1 and human CD40 proteins by FACS using the HEK293A cells prepared in Example 1 that stably expressed human PD-L1 or human CD40.
The source holds these as a separate data set.

The target is the same in assay [3]. The assay can be described thus: FACS on HEK293A/human PD-L1 cells. As for the experimental part: as §1, §3
This is another data set of the same source.

Assay [4] shares this target. The assay can be described thus: FACS on HEK293A/human PD-L1 cells. As for the experimental part:
as §1, §3
This is another data set of the same source.

The target in assay [5] is monkey PD-L1 on HEK293A/monkey PD-L1 cells (monkey, UniProt Q9NZQ7 19-290 (human entry)). The assay can be described thus: FACS on HEK293A/monkey PD-L1 cells. The procedure: as §1, §2
monkey PD-L1 on HEK293A/monkey PD-L1 cells, sequence (Q9NZQ7 other isoform, or with tags, fused parts or gaps limits assumed): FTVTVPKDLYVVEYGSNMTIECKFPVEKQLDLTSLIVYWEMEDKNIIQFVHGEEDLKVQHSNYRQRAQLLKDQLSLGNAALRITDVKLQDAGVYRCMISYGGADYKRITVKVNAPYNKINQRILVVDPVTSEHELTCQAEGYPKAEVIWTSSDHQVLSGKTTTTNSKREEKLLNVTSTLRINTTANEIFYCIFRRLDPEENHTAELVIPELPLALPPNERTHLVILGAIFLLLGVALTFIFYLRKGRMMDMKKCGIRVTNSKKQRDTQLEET
The target in assay [6] is T1, human PD-L1 on HEK293A/human PD-L1 cells. As to the kind of experiment: FACS blocking assay on HEK293A/human PD-L1 cells; blocked ligand PD-1-Fc. The procedure: (§4) The bispecific antibodies were tested for their blocking activity on PD-1-PD-L1 binding by FACS using the HEK293A cells stably expressing human PD-L1 molecules as prepared in Example 1. Briefly, a 96-well plate was seeded with 10⁵ HEK293A/human PD-L1 cells in 100 μl cell culture medium, and then added with 50 μl serially diluted anti-PD-L1 antibody 56E5VH5VL4 or MBS307-3 molecules. After incubation at 4° C. for 1 h. the plate was washed with PBST for 3 times, added with 100 μl 200 μg/ml PD-1-Fc fusion proteins (Cat #:10377-10211, Sino Biological, CN), incubated at 4° C. for 1 h, washed with PBST for 3 times, and added with 1:500 diluted PE-goat anti-human IgG (Cat #:PAI-86078, Thermofisher, USA). After incubation at 4° C. for 1 h, the plate was washed with PBST for 3 times and measured for fluorescence using a FACS machine (BD).

For assay [7] the target is unchanged. Described as above. As for the experimental part:
as §4
(§5) Following the protocol of Example 7, the bi- or multi-specific antibodies were tested for their capability to block PD-1-PD-L1 binding by FACS, using the HEK293A cells prepared in Example 1 that stably expressed human PD-L1 molecules.
This is another data set of the same source.

Assay [8] has the same target. The description is as above. As for the experimental part: as §4, §5
The source holds these as a separate data set.

The target of assay [9] is T2, human CD40 on HEK293A/human CD40 cells (human, UniProt P25942 21-277). The assay can be described thus: cell-based or functional assay.
Assay [10] deals with T3, mouse CD40 on HEK293A cells (mouse, UniProt P27512 20-289).
T3 sequence: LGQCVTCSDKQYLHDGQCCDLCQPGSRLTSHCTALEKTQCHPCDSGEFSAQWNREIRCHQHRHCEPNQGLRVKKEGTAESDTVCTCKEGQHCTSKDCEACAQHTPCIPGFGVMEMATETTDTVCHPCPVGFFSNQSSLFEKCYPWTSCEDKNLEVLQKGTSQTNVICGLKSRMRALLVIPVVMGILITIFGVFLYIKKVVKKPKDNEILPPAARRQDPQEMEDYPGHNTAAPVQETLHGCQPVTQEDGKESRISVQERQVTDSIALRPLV
The assay can be described thus: FACS on HEK293A cells expressing mouse CD40. The procedure: as §1

In assay [11] the target is T2, human CD40 on HEK293A/human CD40 cells. The assay can be described thus: FACS on HEK293A/human CD40 cells. As for the experimental part:
as §1

Assay [12] shares this target. As to the kind of experiment: FACS on HEK293A/human CD40 cells. As for the experimental part:
as §1, §3
This is another data set of the same source.

In assay [13] the target is T4, monkey CD40 on HEK293A/monkey CD40 cells (monkey, UniProt P25942 21-277 (human entry)).
T4 chain: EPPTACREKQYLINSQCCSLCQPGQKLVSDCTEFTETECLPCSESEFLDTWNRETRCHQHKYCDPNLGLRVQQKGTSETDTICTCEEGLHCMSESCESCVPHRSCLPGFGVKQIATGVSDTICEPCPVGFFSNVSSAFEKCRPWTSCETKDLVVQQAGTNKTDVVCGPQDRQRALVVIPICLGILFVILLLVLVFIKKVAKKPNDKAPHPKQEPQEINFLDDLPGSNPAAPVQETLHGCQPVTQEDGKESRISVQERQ
The assay can be described thus: FACS on HEK293A/monkey CD40 cells. The procedure:
as §1

Assay [14] deals with T5, human CD40-his protein (human, UniProt P25942 21-193).
T5 construct: Bought protein; also called human CD40 protein; CD40 molecules; not shown: his tag
As to the kind of experiment: SPR (BIAcore 8K), human CD40-his coupled to CM5 chip, antibody injected. From the text: (§6) Using BIAcore™ 8K instrument (GE Life Sciences, US), the binding affinity of the bi- or multi-specific antibodies to human CD40 and PD-L1 was quantitatively measured. Briefly, 100-200 response units (RU) of human CD40-his protein (Cat #:10774-1108H, Sino Biological, CN) or human PD-L1-his protein (Cat #:10084-H08H, Sino Biological, CN) were coupled to CM5 biosensor chips (Cat #:BR-1005-30, GE Life Sciences. USA). The un-reacted groups were then blocked with 1 M ethanolamine. Serially diluted antibodies at concentrations ranging from 0.3 μM to 10 μM were injected into the SPR running buffer (HBS-EP buffer, pH7.4, Cat #:BR-1006-69, GE Life Sciences, USA) at 30 μL/min. The binding affinity was calculated with the RUs of blank controls subtracted, and the association rate (kₐ) and dissociation rate (kd) were determined using the one-to-one Langmuir binding model (BIA Evaluation Software, GE Life Sciences, USA). The equilibrium dissociation constant KD was calculated as the kd/kₐ ratio.

Assay [15] deals with T6, human PD-L1-his protein (human, UniProt Q9NZQ7 19-238).
T6 construct: extracellular domain; also called human PD-L1 (ECD)-his; human PD-L1 protein; not shown: his tag
T6 sequence (Q9NZQ7 19-238): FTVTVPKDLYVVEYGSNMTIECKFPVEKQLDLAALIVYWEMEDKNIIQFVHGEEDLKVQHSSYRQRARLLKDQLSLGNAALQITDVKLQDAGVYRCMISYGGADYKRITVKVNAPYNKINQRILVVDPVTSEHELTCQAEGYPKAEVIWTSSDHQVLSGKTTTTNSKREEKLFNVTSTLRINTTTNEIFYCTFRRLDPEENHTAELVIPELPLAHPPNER
As to the kind of experiment: SPR (BIAcore 8K), human PD-L1-his coupled to CM5 chip, antibody injected.
Text: as §6
For orientation: SPR reads the build-up and loss of mass on a sensor chip optically.

T1 sequence (Q9NZQ7 19-290 limits assumed): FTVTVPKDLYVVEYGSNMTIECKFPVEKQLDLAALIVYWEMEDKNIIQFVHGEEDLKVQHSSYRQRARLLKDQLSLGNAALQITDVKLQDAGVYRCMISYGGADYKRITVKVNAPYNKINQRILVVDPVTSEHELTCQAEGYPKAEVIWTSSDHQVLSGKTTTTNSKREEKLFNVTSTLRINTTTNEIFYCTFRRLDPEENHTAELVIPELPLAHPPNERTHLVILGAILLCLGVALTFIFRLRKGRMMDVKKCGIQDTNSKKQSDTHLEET

B1: anti-PD-L1 antibody 56E5VH5VL4 (antibody, V domains shown)
VH: QVQLQESGPGLVKPSQTLSLTCTVSGGSITSDYWNWIRQHPGNKLEYMGYISYTGSTYYNPSLKSRISITRDTSKNQFSLKLSSVTTADTAVYYCARYRDWDVRAMDYWGQGTTVTVSS
VL: DIVMTQSPDSLAVSLGEKVTMNCKSSQSLLISGNQKNFLTWYQQKPGQPPKLLIYWASTRESGVPDRFSGSGSGTDFTLTISSLQAEDLAVYYCQNDFGFPFTFGQGTKVEIK
notes: also called the monospecific anti-PD-L1 antibody; 56E5VH5CL4 [sic]
Turning to B1, the EC50 (read off the curve) (in general, the concentration needed to bring the measured effect to its halfway point) in assay [1] is approximately 0.07 µg/mL; in [2] it was approximately 0.04 µg/mL; in [3], approximately 0.04 µg/mL; in assay [4] it was approximately 0.05 µg/mL; in [5], approximately 0.04 µg/mL. In addition, the “IC50 (read off the curve)” value in [6] was approximately 0.06 µg/mL; in assay [7] it was approximately 0.06 µg/mL; in assay [8], approximately 0.02 µg/mL.

B2: MBS307-3 (bispecific antibody, human IgG1, kappa, L234A L235A)
heavy: QVQLQESGPGLVKPSDTLSLTCAVSGYSITTNYYWNWIRQPPGKGLEWMGYIKYDGSNNYNPSLKNRITISVDTSKNQFSLKLSSVTAVDTAVYYCARLDYWGQGTLVTVSSASTKGPSVFPLAPSSKSTSGGTAALGCLVKDYFPEPVTVSWNSGALTSGVHTFPAVLQSSGLYSLSSVVTVPSSSLGTQTYICNVNHKPSNTKVDKKVEPKSCDKTHTCPPCPAPEAAGGPSVFLFPPKPKDTLMISRTPEVTCVVVDVSHEDPEVKFNWYVDGVEVHNAKTKPREEQYNSTYRVVSVLTVLHQDWLNGKEYKCKVSNKALGAPIEKTISKAKGQPREPQVYTLPPSREEMTKNQVSLTCLVKGFYPSDIAVEWESNGQPENNYKTTPPVLDSDGSFFLYSKLTVDKSRWQQGNVFSCSVMHEALHNHYTQKSLSLSPGSGGGGSGGGGSQVQLQESGPGLVKPSQTLSLTCTVSGGSITSDYWNWIRQHPGNKLEYMGYISYTGSTYYNPSLKSRISITRDTSKNQFSLKLSSVTTADTAVYYCARYRDWDVRAMDYWGQGTTVTVSSGGGGSGGGGSGGGGSGGGGSDIVMTQSPDSLAVSLGEKVTMNCKSSQSLLISGNQKNFLTWYQQKPGQPPKLLIYWASTRESGVPDRFSGSGSGTDFTLTISSLQAEDEAVYYCQNDFGFPFTFGQGTKLTAK
light: DVVLTQSPLSLPVTLGQPASISCRSSQSLENSNGNTFLNWFQQRPGQSPRLLIYKVSNRFSGVPDRFSGSGSGTDFTLKISRVEAEDVGVYYCLQVTHVPFTFGQGTKLEIKRTVAAPSVFIFPPSDEQLKSGTASVVCLLNNFYPREAKVQWKVDNALQSGNSQESVTEQDSKDSTYSLSSTLTLSKADYEKHKVYACEVTHQGLSSPVTKSFNRGEC
notes: Symmetric: full-length anti-CD40 antibody with an anti-PD-L1 scFv (56E5VH5VL4) at the C terminus of each heavy chain
Regarding B2, in [9], the “EC50 (read off the curve); HEK-Blue/CD40 reporter, OD630, plate coated with human PD-L1-his” value was approximately 0.1 µg/mL. Besides, in assay [10], the binding result is listed as “no binding (tested: starting concentration at 40 µg/ml)”. For the same molecule, the concentration for a half-maximal effect (EC50 (read off the curve)) in [11] is approximately 0.1 µg/mL; in assay [12], approximately 0.1 µg/mL; in [13], approximately 0.1 µg/mL; in assay [1] it was approximately 0.1 µg/mL; in assay [2] it was approximately 0.2 µg/mL; in assay [4] it was approximately 0.1 µg/mL. Moreover, the concentration for a half-maximal effect (EC50 (read off the curve)) in [5] is approximately 0.09 µg/mL. Further, the Kd (usually the free concentration of one partner at which half of the binding sites on the other are occupied at equilibrium, for simple one-to-one binding) in assay [14] is 1.42 nM; in [15] it was 0.321 nM. Besides, the “IC50 (read off the curve)” value was approximately 0.1 µg/mL in [6] and approximately 0.08 µg/mL in [8].
